Measured values from PMC5739345, “Identification of iridoid synthases from Nepeta species: Iridoid cyclization does not determine nepetalactone stereochemistry” (Phytochemistry, 2018).

Tests used:
purified protein [1] = substrate: C/C(C=O)=C\CC/C(C)=C/C=O; assay: purified protein; format: biochemical, Nepeta racemosa; conditions: 75 μM NADPH, 200 mM MOPS pH 7.0, 100 mM NaCl, 1-1.4% THF, 25 °C, 5 nM enzyme
purified protein [2] = substrate: NC(=O)C1=CN([C@@H]2O[C@H](COP(=O)(O)OP(=O)(O)OC[C@H]3O[C@@H](n4cnc5c(N)ncnc54)[C@H](OP(=O)(O)O)[C@@H]3O)[C@@H](O)[C@H]2O)C=CC1; assay: purified protein; format: biochemical, Nepeta racemosa; conditions: 50 μM 8-oxogeranial, 200 mM MOPS pH 7.0, 100 mM NaCl, 1-1.4% THF, 25 °C, 5 nM enzyme, varied: cofactor

B1: NmISY2 (Nepeta racemosa) (protein)
chain: MSLSWWRAGAAKKRMDDDESLLVKQQQQQCVALIVGVTGLVGNSLAEMLPLPDTPGGPWKVYGVARRARPSWNEDQPMTYISCDVSNTGEVEAKLSPLSDVTHIFYATWTSRSTEEENCEANGKMLKNVLDAMIPNCPNLKHICLQTGRFHYVASVVDWKINGSHDTPLTEDLPRLKTNNFYYTQEDILLEEVKRKEGLTWSVHRPGTIFGFSPYSMMNLVGTLCVYAAICKQEGAVLRFPGCKGAWDGHSDCADADLIAEQQIWAALDPHAKNQAFNVSNGDLFKWKHLWKVLADQFGVECGDYEEGQQLRLQDVMKDKGPVWDKIVAENGLSNTKLEDVGKWWFSDTILWNECRLDSMNKSKEHGFLGFRNSKNCFLYWIHKVKAYNLVPSTYT
notes: N-terminal His-tag (pOPINF), E. coli soluBL21 (DE3), Ni-NTA and gel filtration; not fully homogeneous; dimer fraction; Phe at Lys146, Ala at Gly150 positions (natural)
Km (purified protein [1]): 7.3 ± 0.7 µM
kcat (purified protein [1]): 0.60 ± 0.02 s⁻¹
Km (purified protein [2]): 26.2 ± 5.1 µM
kcat (purified protein [2]): 0.84 ± 0.06 s⁻¹
